Data taken from article doi:10.1101/2022.08.07.503104.

Legend:
[1] = target: Recombinant Tat (86 residues, BH10 isolate) (HIV-1 (BH10 isolate)) (UniProt P69697); experiment: SPR
[2] = target: Tat-CypA complex formed beforehand (HIV-1 (BH10 isolate) | human) (UniProt P69697); experiment: SPR
[3] = target: Tat-CypA complex formed beforehand (HIV-1 (BH10 isolate) | human) (UniProt P69697); experiment: MST
[4] = target: Recombinant human CypA (human) (UniProt P62937); experiment: MST
[5] = target: CypA-CA complex formed beforehand (human | HIV-1) (UniProt P62937); experiment: MST

For “CypA-CA complex formed beforehand (from UniProt P62937 1-165)”, the Kd [1] was 0.095 µM.
With “Recombinant HIV-1 capsid protein (CA) (natural protein)” the Kd [2] was 0.11 µM, the Kd [3] was 5.5 µM and the Kd [4] was 8.3 µM.
For “Recombinant Tat (86 residues, BH10 isolate) (from UniProt P69697 1-86) (natural protein)”, the Kd [5] was 0.055 µM.
